Data as given in US12195558B2, “Targeted delivery system and methods of use therefor” (SANFORD BURNHAM PREBYS MEDICAL DISCOVERY INSTITUTE, priority 2015, dated 2025).
Bridge positions count the residues as written; N and C are the ends. Ends that are not written are not given here.

Columns and labels:
p32 [1] = molecular target: T1, p32 (Homo sapiens, UniProt Q07021); assay: Binding of peptide-displaying T7 phage to p32-coated magnetic beads; details: p32-coated magnetic beads
T1 construct: made in house; host or cells: E. coli Rosetta-gami-2 (Novagen)
T1 sequence (Q07021 74-282): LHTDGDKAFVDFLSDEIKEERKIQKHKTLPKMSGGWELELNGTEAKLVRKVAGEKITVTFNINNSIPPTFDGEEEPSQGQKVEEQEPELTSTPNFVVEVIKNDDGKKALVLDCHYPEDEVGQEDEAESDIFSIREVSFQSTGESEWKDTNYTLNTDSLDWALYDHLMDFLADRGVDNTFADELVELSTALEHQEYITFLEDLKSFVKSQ
Method: FIG. 10 is a bar graph showing that the p32 binding of the RGXR(S/T) motif (SEQ ID NOs: 4 and 5) in the exemplary TT1 peptide (SEQ ID NO: 3) was not dependent on the cyclic structure and compatible with flanking sequences. Phage clones displaying the indicated peptides were incubated in p32-coated magnetic microbeads. After washing to remove non-bound phage, specifically bound phage were quantified.
Milligram quantities of recombinant His-tagged p32 protein were expressed in E. coli and coated onto Ni-NTA magnetic beads, and biopanning was performed using two T7 bacteriophage peptide libraries (cyclic Cx7C and linear X7 library).
Variant peptide-encoding genomic DNA of phage was sequenced and analyzed for the presence of consensus motifs. After two rounds of selection, both linear and cyclic libraries converged to contain an RGXRS (SEQ ID NO: 4) pentapeptide motif (see FIG. 2B). The binding of RGXRS (SEQ ID NO: 4)-displaying phage to p32 was specific, as these phage bound to magnetic beads coated with p32 protein and not to beads coated with ligand-binding b1b2 domain of the cell and tissue penetration receptor NRP-1 or BSA (see FIG. 3).
(§1) An exemplary RGXRS (SEQ ID NO: 4) pentapeptide motif-containing peptide with the sequence CKRGARSTC (SEQ ID NO: 3) was designated as the […] and used it for further studies. Mutating any amino acid in the consensus motif of TT1 abolished the phage binding to p32. This new peptide conferred about 15-fold stronger phage binding to immobilized p32 protein than did the canonical LyP-1 peptide.

p32 [2] = molecular target: T1, p32; assay: Fluorescence polarization assay with synthetic peptides on p32; type: binding; details: for inhibition of binding of labeled TT1 to P32 by unlabeled peptide: competition, fluorescence polarization
Description: (§2) FIGS. 4A and 4B are plots showing a comparison of the binding of LyP-1 (SEQ ID NO: 7; diamonds) and TT1 (SEQ ID NO: 3; squares) to p32 in a fluorescence polarization assay. […] NRP-1 was used as a control protein.
FIG. 5 is a plot showing that P32-TT1 (CKRGARSTC; SEQ ID NO: 3) and LyP-1 (SEQ ID NO: 7) peptides competed for binding to the P32 protein. […] Squares: p32-TT1; Diamonds: LyP-1; X: RPARPAR peptide (SEQ ID NO: 14).
as §1

[3] = test system: orthotopic MCF10CA1a breast tumor xenografts; assay: Tumor homing and penetration of peptide-conjugated nanoworms (NWs); type: in vivo, athymic nude mice
Method: FIG. 12 is a fluorescent micrograph showing tumor homing of linear TT1-NWs. Tumor-bearing mice were intravenously injected with FAM-LinTT1-coated NWs (7.5 mg iron/kg) and allowed to circulate for 5 hours. The mice were perfused through the heart with PBS, and tumors and organs were collected and processed for fluorescence microscopy. The left panel is a representative confocal microscopy image from tumors in mice. […]
FIG. 13 is a bar graph showing quantification of the homing of various peptide-coated NWs. […] Quantification of fluorescence was done with ImageJ software (available from the website of the United States National Institutes of Health). In addition to the tumors, NWs were detected in the liver and spleen, which non-specifically capture nanoparticles regardless of their peptide coating. […]
FIG. 15 is a bar graph showing tumor accumulation of NWs coated with chimeric peptides consisting of a homing peptide and pro-apoptotic peptide. Quantification of NW fluorescence was done with ImageJ software. […]
In vivo peptide homing. […] After 5-6 hours of NW circulation the mice were euthanized by cardiac perfusion with PBS under anesthesia, and tumors and organs were dissected and analyzed for particle homing.
Immunofluorescence. […] The primary antibody was detected with Alexa 594-labeled goat anti-rat secondary antibody (1:1000; Molecular Probes). […]

mitochondrial membranes = details: significantly less than the concentration required to kill eukaryotic cells; cited from earlier work
orthotopic breast tumors = details: systemically administered; cited from earlier work
atherosclerotic plaques = assay: Homing to atherosclerotic plaques in ApoE null mice on high-fat diet; type: in vivo; details: 100 mg FAM labeled peptide i.v., one hour
Method: ApoE null mice that had been kept on a high-fat diet were intravenously injected with […] of the FAM labeled peptides. One hour later, the mice were perfused through the heart under anesthesia, and tissues were collected. The panels show accumulation of FAM labeled peptides visualized with UV excitation. The center two and right two panels show atherosclerotic aortas that were sectioned at the aortic root level and examined by confocal microscopy.

NRP-1 = NRP-1 (Homo sapiens, UniProt O14786); assay: Fluorescence polarization assay on NRP-1 (control protein); type: binding; details: NRP-1 as control protein
Description: as §2

Sequence of NRP-1 (O14786 22-923): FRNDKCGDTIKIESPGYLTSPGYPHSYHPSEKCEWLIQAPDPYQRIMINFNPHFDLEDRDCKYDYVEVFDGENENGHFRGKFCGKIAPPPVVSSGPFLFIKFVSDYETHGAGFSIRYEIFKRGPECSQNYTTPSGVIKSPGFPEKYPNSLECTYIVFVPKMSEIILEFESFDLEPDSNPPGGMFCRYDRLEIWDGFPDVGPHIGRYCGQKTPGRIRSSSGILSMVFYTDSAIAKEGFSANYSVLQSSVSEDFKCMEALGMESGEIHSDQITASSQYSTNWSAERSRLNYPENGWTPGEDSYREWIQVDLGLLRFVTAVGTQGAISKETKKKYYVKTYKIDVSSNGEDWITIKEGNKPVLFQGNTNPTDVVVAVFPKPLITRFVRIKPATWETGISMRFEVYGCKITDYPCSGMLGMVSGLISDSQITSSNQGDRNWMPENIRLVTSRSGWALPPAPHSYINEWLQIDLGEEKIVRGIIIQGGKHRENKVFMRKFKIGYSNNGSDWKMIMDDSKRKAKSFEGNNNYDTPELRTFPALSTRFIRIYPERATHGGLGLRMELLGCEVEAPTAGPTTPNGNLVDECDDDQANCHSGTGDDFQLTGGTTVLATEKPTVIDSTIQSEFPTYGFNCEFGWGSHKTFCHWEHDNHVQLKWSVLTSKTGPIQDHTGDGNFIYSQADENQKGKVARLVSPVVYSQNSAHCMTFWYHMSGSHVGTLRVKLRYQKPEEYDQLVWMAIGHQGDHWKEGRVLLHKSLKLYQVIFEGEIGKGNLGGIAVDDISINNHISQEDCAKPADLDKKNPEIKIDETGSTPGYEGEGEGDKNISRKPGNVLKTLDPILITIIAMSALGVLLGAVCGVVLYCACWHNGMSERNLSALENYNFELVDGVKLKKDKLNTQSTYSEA

Substance: AKRGARSTA [LinTT1]
- phage binding to p32 (in words) (p32 [1]; listed as TT1 Peptide variant): retains the binding activity
- phage binding to p32 (in words) (p32 [1]; listed as TT1 variant): retained the binding activity
- affinity for p32 (in words) (p32 [2]; method not stated at the place): low affinity for the receptor
- tumor homing of peptide-coated NWs (in words) ([3]; 7.5 mg iron/kg i.v., 5 hours circulation): most effective peptide in the nanoparticle context

Substance: KLAKLAKKLAKLAK (also: D-amino acids, positions not given here) [D(KLAKLAK)2]
- concentration inducing marked mitochondrial swelling (mitochondrial membranes): 10 µM

Substance: CGNKRTRGC (disulfide 1-9 (inferred)) [LyP-1, reference compound]
- homing to and penetration of orthotopic breast tumors (orthotopic breast tumors): efficiently home to and penetrate orthotopic breast tumors in vivo
- homing to and penetration into plaque tissue (atherosclerotic plaques): seen inside plaques
- inhibition of binding of labeled TT1 to P32 by unlabeled peptide (p32 [2]): could be inhibited
- tumor homing and extravascular penetration of homing peptide-D[KLAKLAK]2 NWs (in words) ([3]; homing peptide-D[KLAKLAK]2 chimeric peptide on NWs): more effective than the CGKRK

Substance: CRGDKGPDC [iRGD]
- homing to and penetration of orthotopic breast tumors (orthotopic breast tumors): efficiently home to and penetrate orthotopic breast tumors in vivo

Substance: RPARPAR [reference compound]
- binding to NRP-1 in fluorescence polarization assay (in words) (NRP-1): avidly bound to NRP-1
- inhibition of binding of labeled TT1 to P32 by unlabeled peptide (p32 [2]): not
